# Measured values reported in patent US20210347908A1 (ELPISCIENCE SUZHOU BIOPHARMA, published 2021).
# T1: full length C57BL/6 mouse SIRPα stably expressed on CHOK1 cells (mouse (C57BL/6), UniProt P97797 32-513)
# T1 construct: whole, on cells; also called CHOK1-C57BL/6 mouse SIRPα-2.22 cells
# T1 sequence (looked up): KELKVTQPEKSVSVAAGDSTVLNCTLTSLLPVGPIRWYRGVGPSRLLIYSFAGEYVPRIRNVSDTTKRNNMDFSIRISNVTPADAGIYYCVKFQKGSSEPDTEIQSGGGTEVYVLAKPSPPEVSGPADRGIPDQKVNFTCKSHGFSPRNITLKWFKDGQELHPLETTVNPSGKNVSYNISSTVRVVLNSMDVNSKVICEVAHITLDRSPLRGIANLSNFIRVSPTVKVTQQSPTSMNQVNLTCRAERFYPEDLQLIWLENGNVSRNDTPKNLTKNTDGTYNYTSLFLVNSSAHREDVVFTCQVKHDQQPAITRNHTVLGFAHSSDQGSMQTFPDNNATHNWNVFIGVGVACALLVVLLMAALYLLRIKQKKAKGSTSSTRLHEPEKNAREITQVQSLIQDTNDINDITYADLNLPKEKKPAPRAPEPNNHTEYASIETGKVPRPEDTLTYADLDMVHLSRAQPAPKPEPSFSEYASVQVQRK
# T2: full length cyno SIRPα stably expressed on CHOK1 cells (cynomolgus monkey, UniProt A0A2K5VYQ9 31-507)
# T2 construct: whole, on cells; also called CHOK1-cyno SIRPα-2A2 cells; CHOK1-cyno SIRPα
# T2 sequence: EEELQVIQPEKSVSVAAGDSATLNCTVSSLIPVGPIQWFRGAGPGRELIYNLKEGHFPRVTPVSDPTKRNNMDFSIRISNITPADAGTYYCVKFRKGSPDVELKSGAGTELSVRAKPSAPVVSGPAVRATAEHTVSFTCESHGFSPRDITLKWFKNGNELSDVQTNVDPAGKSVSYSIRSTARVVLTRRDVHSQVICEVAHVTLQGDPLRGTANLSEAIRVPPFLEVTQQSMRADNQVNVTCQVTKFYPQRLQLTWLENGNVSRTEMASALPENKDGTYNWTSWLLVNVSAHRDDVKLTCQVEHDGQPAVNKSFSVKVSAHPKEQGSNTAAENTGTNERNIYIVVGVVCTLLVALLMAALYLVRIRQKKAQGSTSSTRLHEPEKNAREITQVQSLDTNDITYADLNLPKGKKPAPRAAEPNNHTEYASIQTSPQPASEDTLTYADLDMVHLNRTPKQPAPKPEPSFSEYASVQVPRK
# T3: 6×His tagged C57BL/6 mouse SIRPα ECD recombinant protein (mouse (C57BL/6), UniProt P97797 32-373)
# T3 construct: extracellular domain; bought; also called mSIRPα (C57BL/6); mouse SIRPα (C57BL/6) ECD
# T3 sequence: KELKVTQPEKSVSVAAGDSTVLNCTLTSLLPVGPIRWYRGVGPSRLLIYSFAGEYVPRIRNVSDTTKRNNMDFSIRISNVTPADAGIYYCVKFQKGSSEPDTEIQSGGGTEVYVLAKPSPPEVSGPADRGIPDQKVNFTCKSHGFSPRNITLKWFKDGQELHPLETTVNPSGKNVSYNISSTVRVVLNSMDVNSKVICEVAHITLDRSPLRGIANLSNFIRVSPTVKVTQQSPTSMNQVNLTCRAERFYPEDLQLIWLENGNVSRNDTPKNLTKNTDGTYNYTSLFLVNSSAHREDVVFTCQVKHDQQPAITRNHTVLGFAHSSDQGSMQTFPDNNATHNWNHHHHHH
# What was measured:
# [1] = target: T4, biotin labeled soluble human SIRPα v1 ECD recombinant protein (human, UniProt P78324 31-373, biotin labeled); assay: competitive ELISA, hSIRPα/CD47 blocking
# T4 construct: extracellular domain
# [2] = target: T5, 6×His tagged human SIRPα v8 ECD recombinant protein (human); assay: ELISA
# T5 construct: extracellular domain; bought; also called hSIRPα V8
# [3] = target: T6, Fc tagged human SIRPα v1 ECD recombinant protein (human, UniProt P78324 31-370); assay: ELISA
# T6 construct: range 1-370; cloned range M1-R370 includes the signal peptide; also called hSIRPα V1; not shown: human IgG Fc region (hFc) of the pCPC vector
# [4] = target: T7, Fc tagged human SIRPγ ECD recombinant protein (human, UniProt Q9P1W8 29-360); assay: ELISA
# T7 construct: range 1-360; cloned range includes the signal peptide; also called hSIRPγ; not shown: human IgG Fc region (hFc) of the pCPC vector
# [5] = target: T8, Fc tagged human SIRPα v2 ECD recombinant protein (human); assay: ELISA
# T8 construct: range 1-369; cloned range M1-R369 includes the signal peptide; also called hSIRPα V2
# [6] = target: T9, Fc tagged human SIRPβ ECD recombinant protein (human, UniProt O00241 30-371); assay: ELISA
# T9 construct: range 1-371; cloned range includes the signal peptide; also called hSIRPβ; not shown: human IgG Fc region (hFc) of the pCPC vector
# [7] = target: T10, full length human SIRPα v1 stably expressed on CHOK1 cells (human, UniProt P78324 31-504); assay: FACS on CHOK1 cells
# T10 construct: whole, on cells; also called CHOK1-human SIRPα v1-1B4 cells; CHOK1-human SIRPα v1
# Protocol: (§1) Species cross reactivity of the purified hybridoma antibodies against human, cyno and mouse SIRPα was determined by FACS assay using CHOK1-human SIRPα v1-1B4 cells, CHOK1-cyno SIRPα-2A2 cells, and CHOK1-C57BL/6 mouse SIRPα-2.22 cells, which stably expressing SIRPα protein. Briefly the antibodies were incubated with 2×10⁵ target cells at 4° C. for 1 hour. After washing, fluorescence labeled anti-mouse or anti-human IgG 2nd antibody (Life Technologies) was added and incubated at 4° C. for 1 hour. Geometric median fluorescence intensity was detected and EC₅₀ was calculated. In particular, it is noted, in contrast to the other antibodies tested in the same experiment, 060 cannot bind with cyno SIRPα and 035 has cross reactivity against C57BL/6 mouse SIRPα.
# [8] = target: T1, full length C57BL/6 mouse SIRPα stably …; assay: FACS on CHOK1 cells
# Protocol: as §1
# [9] = target: T2, full length cyno SIRPα stably expressed …; assay: FACS on CHOK1 cells
# Protocol: as §1
# [10] = target: T11, 6×His tagged human SIRPα v1 ECD recombinant protein (human, UniProt P78324 31-373); assay: SPR (Biacore)
# T11 construct: extracellular domain; bought; also called hSIRPα V1 (SPR antigen)
# [11] = target: T3, 6×His tagged C57BL/6 mouse SIRPα ECD …; assay: ELISA on coated mouse SIRPα (C57BL/6) ECD [Continued) F]
# [12] = target: T11, 6×His tagged human SIRPα v1 ECD …; assay: SPR (Biacore), antibody captured
# Protocol: (§2) Anti-SIRPα chimeric antibodies were characterized for binding affinity against human SIRPα v1, human SIRPα v2 and C57BL/6 mouse SIRPα using Biacore (GE). Briefly the antibodies to be tested were captured to CM5 chip (GE) using Human Antibody Capture Kit (GE). The antigens of 6×His tagged human SIRPα v1, human SIRPα v2 and C57BL/6 mouse SIRPα ECD recombinant proteins were serially diluted for multiple doses and injected at 30 μl/min for 180 s. Buffer flow was maintained for dissociation of 400 s. 3 M MgCl₂ was used for chip regeneration. The association and dissociation curves were fit with 1:1 binding model, and the Ka/Kd/KD values for each antibody were calculated.
# [13] = target: T12, 6×His tagged human SIRPα v2 ECD recombinant protein (human); assay: SPR (Biacore)
# [14] = target: T3, 6×His tagged C57BL/6 mouse SIRPα ECD …; assay: SPR (Biacore)
# [15] = target: T12, 6×His tagged human SIRPα v2 ECD …; assay: SPR (Biacore), antibody captured
# Protocol: as §2
# [16] = target: T3, 6×His tagged C57BL/6 mouse SIRPα ECD …; assay: SPR (Biacore), antibody captured
# Protocol: as §2
# T4 sequence (P78324 31-373): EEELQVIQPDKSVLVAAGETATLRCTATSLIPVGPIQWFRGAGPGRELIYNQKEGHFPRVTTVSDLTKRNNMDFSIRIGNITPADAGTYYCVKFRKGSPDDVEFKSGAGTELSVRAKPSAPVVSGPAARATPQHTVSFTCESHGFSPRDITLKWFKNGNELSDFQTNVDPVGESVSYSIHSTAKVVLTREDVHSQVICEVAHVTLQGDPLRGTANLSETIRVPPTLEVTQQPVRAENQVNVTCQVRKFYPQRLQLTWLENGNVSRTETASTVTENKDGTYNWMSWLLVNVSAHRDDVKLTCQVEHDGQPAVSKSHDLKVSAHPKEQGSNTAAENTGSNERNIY
# T7 sequence (Q9P1W8 29-360 limits assumed, form in doubt): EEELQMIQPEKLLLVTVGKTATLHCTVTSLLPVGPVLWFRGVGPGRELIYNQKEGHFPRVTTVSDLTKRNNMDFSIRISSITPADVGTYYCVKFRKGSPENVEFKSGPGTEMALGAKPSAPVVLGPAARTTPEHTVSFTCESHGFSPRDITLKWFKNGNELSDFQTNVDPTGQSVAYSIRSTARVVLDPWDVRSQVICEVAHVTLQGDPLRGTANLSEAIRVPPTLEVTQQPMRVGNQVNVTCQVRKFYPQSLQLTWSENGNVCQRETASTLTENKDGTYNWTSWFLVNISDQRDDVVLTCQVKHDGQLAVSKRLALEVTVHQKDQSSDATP
# T11 sequence (P78324 other isoform, or with tags, fused parts or gaps): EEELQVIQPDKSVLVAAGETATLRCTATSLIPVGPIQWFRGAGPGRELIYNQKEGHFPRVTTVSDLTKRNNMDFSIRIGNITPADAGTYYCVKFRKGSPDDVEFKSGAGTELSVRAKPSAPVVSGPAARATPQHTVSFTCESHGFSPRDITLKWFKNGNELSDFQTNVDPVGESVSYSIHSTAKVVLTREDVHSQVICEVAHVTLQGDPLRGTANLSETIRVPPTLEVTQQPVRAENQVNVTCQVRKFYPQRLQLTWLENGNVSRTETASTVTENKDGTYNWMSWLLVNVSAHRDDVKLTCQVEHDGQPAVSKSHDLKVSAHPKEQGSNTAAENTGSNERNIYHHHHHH
# T9 sequence (O00241 30-371 limits assumed, form in doubt): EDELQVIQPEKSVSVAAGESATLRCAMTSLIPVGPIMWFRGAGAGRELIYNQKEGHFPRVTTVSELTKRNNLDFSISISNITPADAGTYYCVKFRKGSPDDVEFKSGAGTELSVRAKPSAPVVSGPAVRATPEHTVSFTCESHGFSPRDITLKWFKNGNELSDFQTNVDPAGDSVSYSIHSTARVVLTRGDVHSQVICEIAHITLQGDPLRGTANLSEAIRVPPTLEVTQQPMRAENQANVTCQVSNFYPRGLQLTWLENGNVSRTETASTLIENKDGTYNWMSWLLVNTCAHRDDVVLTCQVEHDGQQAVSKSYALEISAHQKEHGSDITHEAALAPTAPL
# T12 sequence (chain, as listed by the source): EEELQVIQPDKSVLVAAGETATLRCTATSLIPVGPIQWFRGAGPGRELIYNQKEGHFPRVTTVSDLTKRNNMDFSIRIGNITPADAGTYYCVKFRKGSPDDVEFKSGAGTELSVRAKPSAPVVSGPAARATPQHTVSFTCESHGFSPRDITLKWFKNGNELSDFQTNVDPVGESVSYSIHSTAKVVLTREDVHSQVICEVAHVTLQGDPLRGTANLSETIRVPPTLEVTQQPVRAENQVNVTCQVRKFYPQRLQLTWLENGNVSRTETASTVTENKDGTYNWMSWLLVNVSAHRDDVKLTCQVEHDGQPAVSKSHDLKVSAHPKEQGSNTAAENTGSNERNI
# T6 sequence (P78324 31-370 limits assumed): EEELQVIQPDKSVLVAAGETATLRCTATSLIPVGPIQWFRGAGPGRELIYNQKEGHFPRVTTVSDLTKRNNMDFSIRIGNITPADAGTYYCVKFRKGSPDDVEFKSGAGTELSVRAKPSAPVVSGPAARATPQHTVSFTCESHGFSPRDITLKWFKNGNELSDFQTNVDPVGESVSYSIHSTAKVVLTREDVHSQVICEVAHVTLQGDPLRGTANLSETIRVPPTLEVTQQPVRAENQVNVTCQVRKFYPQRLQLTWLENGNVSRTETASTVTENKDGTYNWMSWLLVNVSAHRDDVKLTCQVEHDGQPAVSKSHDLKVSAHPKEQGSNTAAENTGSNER
Binder,IC50 [1] [nM],EC50 [2] [nM],EC50 [3] [nM],EC50 [4] [nM],EC50 [5] [nM],EC50 [6] [nM],EC50 [7] [nM],MFI at 2 ug/ml [8] [MFI],EC50 [9] [nM],Kd [10] [nM],EC50 (read off the curve) [11] [µg/mL],Kd [12] [nM],koff [12] [s⁻¹],kon [12] [M⁻¹ s⁻¹],Kd [13] [nM],Kd [14] [nM],Kd [15] [nM],koff [15] [s⁻¹],kon [15] [M⁻¹ s⁻¹],Kd [16] [nM],also measured
"humanized antibody hu035.03 (antibody, V domains shown) VH: QIQLVQSGSELKKPGASVKVSCRARGYTLTDYAMNWVRQAPGQGLEWMGFINTYTGEPTYAQGFKGRFVFSLDTSVSTAYLQIGSLKAEDTAVYYCARTRGYYDFDGGAFDYWGQGTLVTVSS VL: DIQMTQSPSSLSASVGDRVTITCRASQNVGTHLAWYQQKPGKSPKALIFSASYRYIGVPSRFSGSGSGTDFTLTISSLQPEDFATYYCQQYNTYPLTFGQGTKLEIK",1.43,0.23,0.13,6.78,0.11,0.17,1.46,626,0.3,3.2,~0.09,3.2,0.000189,59200,–,–,–,–,–,–,–
"humanized antibody hu035.09 (antibody, V domains shown) VH: QIQLVQSGSELKKPGASVKVSCRAGGYTLTDYAMNWVRQAPGQGLEWMGFINTYTGEPTYAQGFKGRFVFSLDTSVSTAYLQIGSLKAEDTAVYYCARTRGYYDFDGGAFDYWGQGTLVTVSS VL: DIQMTQSPSSLSASVGDRVTITCRASQNVGTHLAWYQQKPGKAPKSLIYSAIYRYIGVPSRFSGSGSGTDFTLTISSLQPEDFATYYCQQYNTYPLTFGQGTKLEIK",1.36,0.21,0.13,1.05,0.19,0.23,1.45,950,0.36,2.17,~0.04,2.17,0.000191,88300,–,–,–,–,–,–,–
"humanized antibody hu035.10 (antibody, V domains shown) VH: QIQLVQSGSELKKPGASVKVSCRARGYTLTDYAMNWVRQAPGQGLEWMGFINTYTGEPTYAQGFKGRFVFSLDTSVSTAYLQIGSLKAEDTAVYYCARTRGYYDFDGGAFDYWGQGTLVTVSS VL: DIQMTQSPSSLSASVGDRVTITCRASQNVGTHLAWYQQKPGKSPKALIFSAIYRYIGVPSRFSGSGSGTDFTLTISNLQPEDFATYYCQQYNTYPLTFGQGTKLEIK",1.49,0.18,0.19,0.34,0.16,0.19,1.44,1110,0.33,3.82,~0.04,3.82,0.000238,62100,2.15,33.8,1.64,0.00017,104000,33.8,koff [16]: 0.00152 s⁻¹; kon [16]: 45000 M⁻¹ s⁻¹
"humanized antibody hu035.14 (antibody, V domains shown) VH: QIQLVQSGSELKKPGASVKVSCKASGYSITDYAMNWVRQAPGQGLEWMGFINTYTGEPTYAQGFKGRFVFSLDTSVSTAYLQISSLKAEDTAVYYCARTRGYYDFDGGAFDYWGQGTLVTVSS VL: DIQMTQSPSSLSASVGDRVTITCRASQNVGTHLAWYQQKPGKSPKALIFSAIYRYIGVPSRFSGSGSGTDFTLTISNLQPEDFATYYCQQYNTYPLTFGQGTKLEIK",1.46,0.28,0.15,0.52,0.16,0.23,1.31,1050,0.36,1.44,~0.04,1.44,0.000129,89200,–,–,–,–,–,–,–
"humanized antibody hu035.13 (antibody, V domains shown) VH: QIQLVQSGSELKKPGASVKVSCKASGYSITNYAMNWVRQAPGQGLEWMGFINTYTGEPTYAQGFKGRFVFSLDTSVSTAYLQISSLKAEDTAVYYCARTRGYYDFDGGAFDYWGQGTLVTVSS VL: DIQMTQSPSRLGASVGDRVTITCRASQNVGTHLAWYQQKPGKAPKSLIYSAIYRYIGVPSRFSGSGSGTDFTLTISSLQPEDFATYFCQQYNTYPLTFDQGTKLEIKR",1.33,0.16,0.14,0.67,0.17,0.18,1.03,876,0.26,0.61,–,0.61,0.000117,192000,1.24,45.8,3.2,0.000189,59200,45.8,koff [16]: 0.00259 s⁻¹; kon [16]: 56600 M⁻¹ s⁻¹
